Assay results as given in US20240254182A1 (PROVINCIAL HEALTH SERVICES AUTHORITY, published 2024).
Where a chain is given by its changes, count along the chain named.

What was measured:
[1] = biological target: T1, combination design 402 G-CSFR(Ig-CRH)E with N-terminal hexahistidine tag (human, UniProt Q99062 25-331); assay: co-expression in insect cells, pulldown via the Twin Strep tag on G-CSF, reducing SDS-PAGE; G-CSFR(Ig-CRH) format
T1 chain: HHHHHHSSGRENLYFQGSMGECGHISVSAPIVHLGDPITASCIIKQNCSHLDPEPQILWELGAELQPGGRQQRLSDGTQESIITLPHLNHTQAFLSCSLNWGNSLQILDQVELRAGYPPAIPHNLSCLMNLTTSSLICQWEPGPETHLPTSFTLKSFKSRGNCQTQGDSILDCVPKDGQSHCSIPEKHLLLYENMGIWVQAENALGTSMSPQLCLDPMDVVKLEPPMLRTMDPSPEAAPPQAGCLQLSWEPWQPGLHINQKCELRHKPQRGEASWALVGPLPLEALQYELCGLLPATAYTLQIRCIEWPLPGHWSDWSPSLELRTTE
Procedure: (§1) The P2 viral stocks were tested for protein expression in small-scale. P2 virus was used to co-infect G-CSFE mutants with their corresponding G-CSFRE mutant in Trichoplusia ni (Tni) cells in 12-well plates. Separate co-infections for each design mutant were performed using the P2 stocks of G-CSFWT and GCSFR(CRH)WT, as well as for G-CSFE mutants alone. For each reaction, 2 mL of healthy log-phase Tni at 2×10⁶ cells ml⁻¹ was inoculated with 20 μl P2 virus. Plates were incubated at 27° C. for approximately 70 h with shaking at 135 rpm. […] Briefly, to each 1.8 mL reaction supernatant 0.2 mL 10× HEPES Buffered Saline (HBS: 20 mM HEPES pH8, 150 mM NaCl) was added to 1×, 20 μl bed volume (b.v) of purification beads added and reactions incubated for 30 minutes with end-over-end mixing at 24° C. An additional 20 μl b.v of purification beads was added followed by a second 30 minute incubation. Beads were pelleted by centrifugation at 2200 rpm for 3 minutes, supernatant was removed and the beads washed with 1× HBS buffer.
(§2) The co-expression assay with pulldown through the cytokine TST tag was performed as described above in Example 2, with the difference that the receptor constructs contained the Ig and CRH domains (residues 2-308, Table 1) referred to as G-CSFR(Ig-CRH).

[2] = biological target: T2, combination design 401 G-CSFR(Ig-CRH)E with N-terminal hexahistidine tag (human, UniProt Q99062 25-331); assay: as above
T2 chain: T1 chain with E186D, E193Q, E307D
Procedure: as §1, §2

[3] = biological target: T3, site II design 30 G-CSFR(CRH)E with N-terminal hexahistidine tag (human, UniProt Q99062 120-331); assay: WT G-CSF co-expressed with variant G-CSFR(CRH) in insect cells, pulldown via the Twin Strep tag on G-CSF, reducing SDS-PAGE
T3 construct: also called design #30 G-CSFRE
T3 chain: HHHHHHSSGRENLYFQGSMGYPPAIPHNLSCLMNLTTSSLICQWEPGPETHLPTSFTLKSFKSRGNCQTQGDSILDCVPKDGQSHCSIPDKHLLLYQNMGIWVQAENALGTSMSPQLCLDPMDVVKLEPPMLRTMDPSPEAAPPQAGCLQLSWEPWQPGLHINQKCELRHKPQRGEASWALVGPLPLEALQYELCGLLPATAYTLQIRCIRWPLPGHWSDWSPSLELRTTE
Procedure: as §1

[4] = biological target: T4, site II design 35 G-CSFR(CRH)E with N-terminal hexahistidine tag (human); assay: as above
T4 construct: also called design #35 G-CSFRE
T4 chain: T3 chain with R64E, D90R, L94E, Q97E
Procedure: as §1

[5] = biological target: T5, site II design 15 G-CSFR(CRH)E with N-terminal hexahistidine tag (human); assay: as above
T5 construct: also called design #15 G-CSFRE
T5 chain: T3 chain with D90R, L94R, Y96V, D120R
Procedure: as §1

[6] = biological target: T6, site II design 34 G-CSFR(CRH)E with N-terminal hexahistidine tag (human, UniProt Q99062 120-331); assay: as above
T6 construct: also called design #34 G-CSFRE
T6 chain: T3 chain with R64E
Procedure: as §1

[7] = biological target: T7, WT G-CSFR(Ig-CRH), purified, tag cleaved (human, UniProt Q99062 26-331); assay: SPR (Biacore T200), WT receptor amine-coupled, cytokine injected
T7 construct: also called G-CSFRWT; wild type G-CSFR(Ig-CRH)
T7 chain: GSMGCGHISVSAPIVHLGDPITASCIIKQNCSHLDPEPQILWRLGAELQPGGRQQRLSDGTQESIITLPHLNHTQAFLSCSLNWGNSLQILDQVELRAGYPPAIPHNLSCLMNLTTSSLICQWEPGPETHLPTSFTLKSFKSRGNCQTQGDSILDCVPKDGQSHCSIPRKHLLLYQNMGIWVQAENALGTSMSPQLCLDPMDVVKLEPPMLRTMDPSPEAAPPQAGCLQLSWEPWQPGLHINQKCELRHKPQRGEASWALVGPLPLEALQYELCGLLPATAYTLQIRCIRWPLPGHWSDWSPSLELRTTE
Procedure: (§3) The SPR binding assays were carried out on a Biacore T200 instrument (GE Healthcare, Mississauga, ON, Canada) with PBS-T (PBS+0.05% (v/v) Tween 20) running buffer at a temperature of 25° C. CM5 Series S sensor chip, Biacore amine coupling kit (NHS, EDC and 1 M ethanolamine), and 10 mM sodium acetate buffers were all purchased from GE Healthcare. PBS running buffer with 0.05% Tween20 (PBS-T) was purchased from Teknova Inc. (Hollister, CA). Designs were assessed in three different immobilization orientations.
To assess binding affinity of G-CSFE to G-CSFRWT, recombinant G-CSFRWT purified as described in Example 5 was captured as described above in this Example. Using single-cycle kinetics, six concentrations of a two-fold dilution series of each G-CSFE mutant starting at […] with a blank buffer control were sequentially injected as described above. The same sample titration was also performed on a reference cell with no variants captured. The G-CSFRWT surface was regenerated as described above.
(§4) Double-referenced sensorgrams from duplicate or triplicate repeat injections were analyzed using Biacore™ T200 Evaluation Software v3.0 and fit to the 1:1 Langmuir binding model.

[8] = biological target: T8, design 300 G-CSFR(Ig-CRH)E, tag cleaved (human, UniProt Q99062 26-331); assay: SPR, G-CSFRE amine-coupled, G-CSFE injected, single-cycle kinetics
T8 chain: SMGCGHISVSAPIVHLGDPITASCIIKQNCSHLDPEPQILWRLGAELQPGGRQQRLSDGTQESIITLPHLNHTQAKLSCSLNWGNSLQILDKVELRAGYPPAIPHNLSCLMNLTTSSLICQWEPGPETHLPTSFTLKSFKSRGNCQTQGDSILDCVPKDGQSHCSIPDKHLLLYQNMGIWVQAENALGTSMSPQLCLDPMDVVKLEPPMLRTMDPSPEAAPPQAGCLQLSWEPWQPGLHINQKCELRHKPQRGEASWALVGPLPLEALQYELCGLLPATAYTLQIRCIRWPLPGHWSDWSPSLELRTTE
Procedure: as §3
(§5) To determine binding affinity of G-CSFE to G-CSFRE the G-CSFRE mutant was captured by standard amine coupling as described by the manufacturer (GE LifeSciences). Briefly, immediately after EDC/NHS activation, a 5 μg/mL solution of G-CSFRE in 10 mM NaOAc, pH 5.0, was injected at a flow rate of 5 μL/min until a receptor density of ˜700-900 RU was reached. The remaining active groups were quenched by a 420 s injection of 1 M ethanolamine hydrochloride-NaOH pH 8.5 at 10 μL/min. Using single-cycle kinetics, six concentrations of a two-fold dilution series of the corresponding G-CSFE mutant starting at 200 nM with a blank buffer control were sequentially injected at 25 μL/min for 300 s with a 1800 s dissociation phase, resulting in a set of sensorgrams with a buffer blank reference. The same sample titration was also performed on a reference cell with no variants captured. The chip was regenerated to prepare for the next injection cycle by one pulse of 10 mM glycine/HCl, pH 2.0, for 30 s at 30 μL/min.
as §4

[9] = biological target: T9, design 303 G-CSFR(Ig-CRH)E, tag cleaved (human, UniProt Q99062 26-331); assay: SPR, G-CSFRE amine-coupled, G-CSFE injected; steady state derived affinity constant
T9 chain: T8 chain with K76F, K92Q, E94K
Procedure: as §5, §4
Kinetic-derived affinity constants (KD) where obtained by fitting the association and dissociation phases of the curves. The KD of WT G-CSF for WT G-CSFR(Ig-CRH) ranged between 1.8-2.5E-9. For the cases in which the kinetic parameters could not be fit an attempt was made to derive a steady state affinity constant. In those cases, the KD fold change was calculated from the steady state derived KD for the WT G-CSF:WT G-CSFR(Ig-CRH) pair and is indicated in Table 7.

[10] = biological target: T10, design 304 G-CSFR(Ig-CRH)E, tag cleaved (human, UniProt Q99062 26-331); assay: SPR, G-CSFRE amine-coupled, G-CSFE injected, single-cycle kinetics
T10 chain: T8 chain with R42E, K76F, K92Q, E94K
Procedure: as §3, §5, §4

B1: WT G-CSF with C-terminal Twin Strep tag (ligand)
chain: not shown
notes: construct of the insect-cell co-expression pulldown; also called G-CSFWT
binding result [1]: no binding | binding result [2]: no binding | binding result [3]: no binding | binding result [4]: no binding | binding result [5]: no binding | binding result [6]: no binding

B2: design 300 G-CSFE, tag cleaved (ligand)
chain: TPLGPASSLPQSFLLKCLEQVRKIQGDGAALQEKLCATYDDCHPEELVLLGHSLGIPWAPLSSCPSQALQLAGCLSQLHSGLFLYQGLLQALEGISPELGPTLDTLQKDVARFATTIWQQMEELGMAPALQPTQGAMPAFASAFQRRAGGVLVASHLQSFLEVSYRVLRHLAQAAAENLYFQ
notes: also called design 300 G-CSFE mutant
binding result [7]: no binding | KD fold change (against WT:WT) [8]: 194 fold

B3: design 303 G-CSFE, tag cleaved (ligand)
chain: B2 chain with D40K, D41L, R147E
notes: also called design 303 G-CSFE mutant
binding result [7]: no binding | KD fold change (against WT:WT) [9]: 2.2 fold

B4: design 304 G-CSFE, tag cleaved (ligand)
chain: B2 chain with D40K, D41L, E46R, R147E
binding result [7]: no binding | KD fold change (against WT:WT) [10]: 6.5 fold
